# From patent publication US20100062984A1, “FGF-23 POLYPEPTIDES” (priority 2007, published 2010)
# “And” between values parts separate entries of the source, which are not always exact repeats. Identical values can stand only once.
# B1: FGF-23(180-251): synthetic FGF-23 fragment, residues 180-251, SEQ ID NO: 3 (peptide, listed as Homo sapiens)
# chain: SAEDDSERDPLNVLKPRARMTPAPASCSQELPSAEDNSPMASDPLGVVRGGRVNTHAGGTGPEGCRPFAKFI
# B2: FGF-23(176-251): synthetic FGF-23 fragment, residues 176-251, SEQ ID NO: 2 (peptide, listed as Homo sapiens)
# chain: RHTRSAEDDSERDPLNVLKPRARMTPAPASCSQELPSAEDNSPMASDPLGVVRGGRVNTHAGGTGPEGCRPFAKFI
# B3: FGF-23(25-251): full-length recombinant human FGF-23(25-251) polypeptide expressed in E. coli, SEQ ID NO: 1 (protein, listed as Homo sapiens)
# chain: YPNASPLLGSSWGGLIHLYTATARNSYHLQIHKNGHVDGAPHQTIYSALMIRSEDAGFVVITGVMSRRYLCMDFRGNIFGSHYFDPENCRFQHQTLENGYDVYHSPQYHFLVSLGRAKRAFLPGMNPPPYSQFLSRRNEIPLIHFNTPIPRRHTRSAEDDSERDPLNVLKPRARMTPAPASCSQELPSAEDNSPMASDPLGVVRGGRVNTHAGGTGPEGCRPFAKFI
# B4: FGF-23(184-251): synthetic FGF-23 fragment, residues 184-251, SEQ ID NO: 4 (peptide, listed as Homo sapiens)
# chain: DSERDPLNVLKPRARMTPAPASCSQELPSAEDNSPMASDPLGVVRGGRVNTHAGGTGPEGCRPFAKFI
# How the values were obtained:
# Fgf-23−/− mice = test: Intraperitoneal injection into Fgf-23−/− mice, serum phosphate; type: in vivo, mouse
# Protocol: To further examine the in vivo phosphaturic activity of the smallest FGF-23 fragment, 0.2 nmoles of FGF-23(180-205) polypeptide were injected twice intraperitoneally into Fgf-23^−/− mice. FGF-23 R176Q polypeptide was similarly injected into the mutant mice as a positive control, and saline was injected as a vehicle control. Fgf-23^−/− animals were generated as reported elsewhere (Sitara et al., Matrix Biol., 23:421-432 (2004)). To determine the in vivo effects of the C-terminal fragment FGF23(180-205) in the absence of endogenous FGF-23 activity, equimolar amounts (0.2 nmoles) of FGF-23 R176Q polypeptide, FGF-23(180-205) polypeptide, and vehicle (saline) were injected twice intraperitoneally into Fgf-23^−/− mice at 0 and 8 hours. Blood was obtained by tail bleeding or cheek pouch puncture of 3- to 6-week-old Fgf-23^−/− animals, 8 hours after the second injection (at 16 hours). Serum levels of phosphate were determined in pre- and post-injection mice using the Stanbio LiquiUV kit (Stanbio Laboratory, Boerne, Tex.).
# normal rats = test: Acute intravenous infusion of equimolar FGF-23 polypeptides in anesthetized rats, renal clearance; type: in vivo, rat; conditions: for FENa (fractional excretion of sodium), control clearance / FEPi (fractional excretion of phosphate), control clearance: C = control clearance before infusion; for FENa (fractional excretion of sodium), control clearance / FEPi (fractional excretion of phosphate), control clearance / FENa (fractional excretion of sodium), experimental clearance / FEPi (fractional excretion of phosphate), experimental clearance: mean ± SE; for FENa (fractional excretion of sodium), experimental clearance / FEPi (fractional excretion of phosphate), experimental clearance: E = experimental clearance, i.v. infusion 1.24 nmol/kg/hour
# Protocol: Male Sprague Dawley rats weighing 300 g were purchased from Harlan Sprague Dawley Inc. (Madison Wis.). They were fed a standard rodent diet containing 0.7% phosphate and 0.5% calcium. All animals were fasted overnight prior to the experiment. On the day of the experiment, rats were anesthetized with an intraperitoneal injection of 100-150 mg/kg body weight of 5-sec-butyl-ethyl-2-thiobarbituricacid (Inactin, Byk Gulden Konstanz, Hamburg, Germany). The rats were placed on a heated table to maintain body temperature between 36-38° C. After a tracheostomy, a PE 50 catheter was placed in the left carotid artery to monitor mean arterial blood pressure (MAP) and to collect blood samples. Catheters were also placed in the left and right jugular veins for infusions. A solution containing 2% inulin in 0.9% NaCl plus 4.5% BSA was infused at a rate of 1.2 mL/hour in one catheter, and 0.9% NaCl was infused in the other catheter at a rate of 1.2 mL/hour. A catheter (PE 90) was placed in the bladder for urine collection. Acute infusion studies were performed using the following seven different groups of animals.
# Group 1: Vehicle Time control (n=8). After a ninety-minute recovery period, one […] urine sample was taken (C1) and a blood sample was taken. One hour later a second 60-minute clearance was taken (C2).
# Group 2: Effect of acute infusion of full length FGF-23 polypeptide (1.24 nmol/kg/hour, n=8). This protocol is identical to group 1 except that after the control collections, full-length recombinant FGF-23 polypeptide was added to the 0.9% saline infusion to deliver 1.24 nmol/kg/hour of full length FGF-23 polypeptide. After one hour of infusion, a sixty-minute clearance was taken.
# Group 3: Effect of acute infusion of FGF-23(176-251) polypeptide (1.24 nmol/kg/hour, n=8). This protocol is identical to group 2 except for the sequence of the infused polypeptide.
# Group 4: Effect of acute infusion of FGF-23(180-251) polypeptide (1.24 nmol/kg/hour, n=8). This protocol is identical to group 2 except for the sequence of the infused polypeptide.
# Group 5: Effect of infusion of FGF-23(184-251) polypeptide (1.24 nmol/kg/hour, n=8). This protocol is identical to group 2 except for the sequence of the infused polypeptide.
# Group 6: Effect of infusion of FGF-23(206-251) polypeptide (1.24 nmol/kg/hour, n=6). This protocol is identical to group 2 except for the sequence of the infused polypeptide.
# Group 7: Effect of infusion of FGF-23(180-205) polypeptide (1.24 nmol/kg/hour, n=6). This protocol is identical to group 2 except for the sequence of the infused polypeptide.
# (§1) Plasma and urine phosphate concentrations were determined using the method of Chen (Chen et al., Anal Chem., 28:1756-1758 (1956)). Inulin concentrations in plasma and urine were determined using the anthrone method (Führ et al., Klin. Wochenschr., 33.:729-730 (1955)). Sodium concentrations in urine were determined by ion selective electrode (EasyLyte Plus Analyzer, Medica Corp., Bedford, Mass.). Calcium concentrations were measured using atomic absorption spectrometry (Kumar et al., Biochemistry, 15:2420-2423 (1976)) with a Perkin Elmer Model 3300 Atomic Absorption Spectrometer (Perkin Elmer, Boston, Mass.). Serum 1α,25(OH)2D concentrations were measured using an RIA kit (Diasorin, Stillwater, Minn.).
# Statistically significant differences between groups were evaluated by Student's t-test for comparison between two groups or by one-way analysis of variance (ANOVA) followed by Tukey's test for multiple comparisons. All values were expressed as mean±SE. A p value less than 0.05 was considered to be statistically significant.
# [1] = test system: opossum proximal tubular epithelial cells (OK); test: OK cell Pi uptake assay; type: cell-based
# Protocol: The OK cell Pi uptake assay was performed as described by Bowe et al. (Biochem Biophys Res Commun., 284:977-981 (2001)).
# NaPi IIa-V5 = test: Surface expression of V5-tagged Na+-Pi IIa transporter in OK cells (immunofluorescence); type: cell-based, opossum; conditions: OK cells expressing V5-tagged transporter, three hour treatment
# Protocol: To assess the mechanism by which these agents altered phosphate transport, the surface expression of an epitope tagged sodium phosphate transporter, NaPi IIa-V5, was examined. An OK cell line stably expressing a VS-tagged Na+-Pi IIa transporter was generated as described elsewhere (Berndt et al., Pflugers Arch., 451:579-587 (2006)). The presence of the transporter on the cell surface of OK-N+-Pi-IIa-V5 cells was carried out using immunohistochemical methods and reagents described elsewhere (Berndt et al., Pflugers Arch., 451:579-587 (2006)).
# rats = test: Chronic (72 hour) intraperitoneal administration in rats, serum phosphate and 1α,25(OH)2D; type: in vivo, rat; conditions: chronic (72 hour) administration, i.p. every 12 hours for three days
# Protocol: as §1
# Chronic animal studies were performed to determine the effect of chronic (72 hour) administration of FGF-23(176-251) polypeptide (1.24 nmol/kg/hour, n=5) or vehicle (PBS+0.1% BSA, n=6) on serum phosphate and 1α, 25 (OH)2 D concentrations. Rats received an intraperitoneal injection of FGF-23(176-251) polypeptide in 0.5 mL of normal saline every 12 hours for three days. At the end of three days, the animals were anesthetized and a terminal blood sample was taken.
# [2] = acute i.v. infusion of equimolar doses, rats
# [3] = listed as full length recombinant FGF-23 polypeptide
molecule,measurement,setting,value
"FGF-23(180-205): synthetic FGF-23 fragment, residues 180-205, SAEDDSERDPLNVLKPRARMTPAPAS, SEQ ID NO: 6 (listed as Homo sapiens)",Serum phosphate level post-injection,"Fgf-23−/− mice; 0.2 nmoles i.p. at 0 and 8 hours, blood at 16 hours, p<0.01 vs pre-injection, in mg/dL (unit assumed)",10.95±0.62
same,Serum phosphate level pre-injection,"Fgf-23−/− mice; before injection, in mg/dL (unit assumed)",14.64±0.51
same,"FENa (fractional excretion of sodium), control clearance",normal rats,0.4±0.1% and 0.39 ± 0.11%
same,"FEPi (fractional excretion of phosphate), control clearance",normal rats,10±2%
same,"FENa (fractional excretion of sodium), experimental clearance",normal rats,1.0±0.2% and 1.01 ± 0.21 %
same,"FEPi (fractional excretion of phosphate), experimental clearance",normal rats,20±2%
same,Effect on phosphate excretion (in words),normal rats; [2],increases phosphate excretion significantly
"FGF-23(206-251): synthetic FGF-23 fragment, residues 206-251, SEQ ID NO: 5 (CSQELPSAEDNSPMASDPLGVVRGGRVNTHAGGTGPEGCRPFAKFI; listed as Homo sapiens)","FENa (fractional excretion of sodium), control clearance",normal rats,0.19 ± 0.04%
same,"FEPi (fractional excretion of phosphate), control clearance",normal rats,22 ± 5%
same,"FENa (fractional excretion of sodium), experimental clearance",normal rats,0.22 ± 0.05^ %
same,"FEPi (fractional excretion of phosphate), experimental clearance",normal rats,29 ± 2^ %
same,Effect on phosphate excretion (in words),normal rats; [2],did not increase
same,Effect on sodium excretion (in words),normal rats; [2],did not increase
B1,"FENa (fractional excretion of sodium), control clearance",normal rats,0.20±0.07% and 0.17 ± 0.07%
same,"FEPi (fractional excretion of phosphate), control clearance",normal rats,14±3%
same,"FENa (fractional excretion of sodium), experimental clearance",normal rats,0.80±0.17% and 0.76 ± 0.17 %
same,"FEPi (fractional excretion of phosphate), experimental clearance",normal rats,26±3%
same,Effect on phosphate excretion (in words),normal rats; [2],increases phosphate excretion significantly
same,Radiolabeled phosphorus uptake (in words),[1],directly inhibited
same,Amount of NaPiIIa-V5 detected on the cell surface (in words),NaPi IIa-V5,significant decreases
B2,Effect on serum Pi concentrations (in words),Fgf-23−/− mice; given intraperitoneally,reduced
same,"FENa (fractional excretion of sodium), control clearance",normal rats,0.90±0.15% and 0.87 ± 0.15%
same,"FEPi (fractional excretion of phosphate), control clearance",normal rats,15±2%
same,"FENa (fractional excretion of sodium), experimental clearance",normal rats,1.21±0.17%
same,"FEPi (fractional excretion of phosphate), experimental clearance",normal rats,33±2%
same,Serum phosphate concentration,"rats; vehicle 2.19±0.11 mM, p=0.062",1.85 ± 0.12 mM
same,"Serum 1α,25(OH)2D concentration","rats; vehicle 114±7 pg/mL, p<0.05",76 ± 11 pg/mL
B3,"FENa (fractional excretion of sodium), control clearance",normal rats; listed as FGF-23 Full Length,0.26 ± 0.14%
same,"FEPi (fractional excretion of phosphate), control clearance",normal rats; listed as FGF-23 Full Length,14 ± 3%
same,"FENa (fractional excretion of sodium), control clearance",normal rats; [3],0.3±0.1%
same,"FEPi (fractional excretion of phosphate), control clearance",normal rats; [3],14±3%
same,"FENa (fractional excretion of sodium), experimental clearance",normal rats; listed as FGF-23 Full Length,0.76 ± 0.15 %
same,"FEPi (fractional excretion of phosphate), experimental clearance",normal rats; listed as FGF-23 Full Length,32 ± 5 %
same,"FENa (fractional excretion of sodium), experimental clearance",normal rats; [3],0.7±0.2%
same,"FEPi (fractional excretion of phosphate), experimental clearance",normal rats; [3],32±5%
same,FE Ca after infusion,normal rats; acute i.v. infusion 1.24 nmol/kg/hour,10.0±2.3%
same,FE Ca before infusion,normal rats; control period before infusion,4.1±1.2%
same,Radiolabeled phosphorus uptake (in words),[1],directly inhibited
same,Amount of NaPiIIa-V5 detected on the cell surface (in words),NaPi IIa-V5,significant decreases
B4,"FENa (fractional excretion of sodium), control clearance",normal rats,0.3±0.1% and 0.27 ± 0.09%
same,"FEPi (fractional excretion of phosphate), control clearance",normal rats,16±3%
same,"FENa (fractional excretion of sodium), experimental clearance",normal rats,0.6±0.16% and 0.63 ± 0.16 %
same,"FEPi (fractional excretion of phosphate), experimental clearance",normal rats,28±3%
same,Effect on phosphate excretion (in words),normal rats; [2],increases phosphate excretion significantly
